{"source": "patent US20230399393A1", "about": "“METHODS TO EXTEND HEALTH-SPAN AND TREAT AGE-RELATED DISEASES” (National University of Singapore, priority 2020, published 2023)", "key": {"[1]": {"test_system": "C57Bl/6J mice", "experiment": "Analysis of markers of cellular senescence in tissues", "assay_type": "in vivo, mouse", "conditions": "at 110 weeks; p16INK4a, p21CIP1, p53, SA-ß-gal; vs IgG control antibody", "from_the_text": "C57Bl/6J mice are randomised to receive either X203 or IgG control antibody at a dose of 40m/kg via IP injection every 3 weeks from age 55 weeks to age 110 weeks.\nAt 110 weeks, tissues are harvested from the mice cells of the relevant tissues and analysed for gene and/or protein expression of p16^INK4a, p21^CIP1 and p53, and for SA-ß-gal activity."}, "[2]": {"test_system": "C57Bl/6J mice", "experiment": "Ageing pathways in tissues of old mice receiving X203, western blot and densitometry", "assay_type": "in vivo, mouse", "conditions": "110-week old mice", "protocol": "The same results are observed in the gastrocnemii (FIGS. 45 and 46), solei (FIGS. 47 and 48) and abdominal fat (FIGS. 49 and 50) of old mice treated with X203.\n(§1) Male and female C57Bl/6J mice aged 46 weeks were purchased from the Jackson Laboratory. Mice were randomised on a 1:1 basis to receive either 40 mg/kg of X203 or an isotype control IgG antibody (11E10), every 3 weeks (IP), starting from 55 weeks of age. Mice were sacrificed at 110 weeks of age for blood and tissues collection. 12 weeks old male and female C57Bl/6J mice that were used as control were purchased from Invivos (Singapore).\nWestern blots were carried out on total protein extracts from primary human cardiac fibroblasts (HCFs), hepatic stellate cells (HSCs), hepatocytes, livers, gastrocnemii, solei, and abdominal fats. Cell or tissue lysates were homogenized in RIPA Lysis and Extraction Buffer (89901, Thermo Scientific) containing protease and phosphatase inhibitors (Roche). Protein lysates were separated by SDS-PAGE, transferred to PVDF membranes, blocked for 1 h with 3% BSA, and incubated overnight with either phospho-ACC (11818, CST), ACC (3676, CST), phospho-AMPK (2535, CST), AMPK (5832, CST), phospho-ERK1/2 (4370, CST), ERK1/2 (4695, CST), GAPDH (2118, CST), phospho-LKB1 S428 (3482, CST), phospho-LKB1 (S325), LKB1 (3047, CST), (phospho-mTOR (2971, CST), mTOR (2972, CST), p16 (ab232402, Abcam), p21 (64016, CST), phospho-p70S6K (9205, CST), p70S6K (2708, CST), phospho-S6 ribosomal protein (4858, CST), or S6 ribosomal protein (2217, CST). All primary antibodies are diluted 1:1000 in 1% BSA. Protein bands were visualized using the ECL detection system (Pierce) with anti-rabbit HRP (1:2000 in 3% BSA, 7074, CST)."}, "[3]": {"test_system": "C57BL6/J mice", "experiment": "Inflammatory markers in liver, kidney and muscle of old mice (QPCR)", "assay_type": "in vivo, mouse", "conditions": "40 mg/kg once every three weeks, vs IgG", "protocol": "(§2) FIG. 52. A neutralizing IL-11 antibody reduces multiple markers of inflammation in kidneys of old mice. Wild-type C57BL6/J mice were treated with an intra-peritoneal injection of anti-IL11 (X203; 40 mg/kg, once every three weeks) or an isotype IgG control (11E10, 40 mg/kg, once every three weeks) from 55 weeks of age until 110 weeks of age. 110 week-old mice were sacrificed and organs harvested, snap frozen and RNA extracted using standard procedures. Samples were analyzed by quantitative RT-PCR (QPCR) using primers specific for Ccl2, Ccl5, Tnfα, Il1β, Il11, Il6 or Gapdh.\nas §2, with “53.” for “52.”, “livers” for “kidneys”\nas §2, with “54.” for “52.”, “skeletal muscle (soleus)” for “kidneys”, “sacrificed,” for “sacrificed”, “Gapdh. […]” for “Gapdh.”\nTotal RNA was extracted from AML12 or snap-frozen tissues using Trizol (Invitrogen) and RNeasy Mini Kit (Qiagen). […] Expression data were normalized to GAPDH mRNA expression and fold change was calculated using 2^−ΔΔct method."}, "[4]": {"test_system": "C57Bl/6J mice", "experiment": "In vivo administration of anti-IL11 (X203) to old mice, summary of multi-morbidity", "parameters": "species or system mouse", "conditions": "vs IgG", "from_the_text": "Furthermore, the data disclose that: • Administration of MEK1/2 inhibitor U0126 to cells stimulated with IL11 prevents ERK-mediated inactivation of LKB1/AMPK that stops IL11-induced mTORC1/P70S6K activation. • Administration of anti-IL11 (X203) vs IgG control to mice aged 55-110 weeks old results in lesser ERK activation, restored LKB1/AMPK activity and reduced mTORC1 activity and senescence markers (p16/p21). This is seen across tissues. • Mice deleted for IL11RA1 at 110 weeks old mirror the effects seen with X203 administration and have a signaling profile more similar to young mice, across tissues. • Administration of X203 vs IgG to old mice improves multi-morbidity with better serum levels of fats, glucose, lesser tissue fibrosis, better kidney function, reduced tissue inflammation, reduced obesity and lesser frailty. • Administration of X203 vs IgG to old mice improves markers of inflammation (CCL2, CCL5, TNFa, IL1b, IL11 and IL6)—an altered intercellular communication Hallmark of ageing—across tissues, including liver, kidney and skeletal muscle.\nas §1, with “12 weeks old male and female C57Bl/6J mice that were used as control were purchased from Invivos (Singapore).” left out"}, "[5]": {"conditions": "compared with the liver results"}}, "data": [{"molecule": "X203: mouse anti-mouse IL-11 IgG antagonist antibody; VH SEQ ID NO:22, VL SEQ ID NO:23 (antibody, V domains shown) VH: EVQLQQSGPELVKPGASVKIPCKASGYTFTDYNMDWVKQSHGKSLEWIGDINPHNGGPIYNQKFTGKATLTVDKSSSTAYMELRSLTSEDTAVYYCARGELGHWYFDVWGTGTTVTVSS VL: DIVLTQSPASLAVSLGQRATISCRASKSVSTSGYSYIHWYQQKPGQPPKLLIYLASNLDSGVPARFSGSGSGTDFTLNIHPVEEEDAATYYCQHSRDLPPTFGGGTKLEIK", "values": [{"measurement": "levels of markers of cellular senescence", "setting": "[1]", "result": "lower"}, {"measurement": "ERK/LKB1/mTORC1 activity, AMPK activity, p16 and p21 expression in gastrocnemii", "setting": "[2]; [5]", "result": "same results"}, {"measurement": "ERK/LKB1/mTORC1 activity, AMPK activity, p16 and p21 expression in solei", "setting": "[2]; [5]", "result": "same results"}, {"measurement": "AMPK activity in livers", "setting": "[2]; vs IgG control", "result": "more"}, {"measurement": "ERK/LKB1/mTORC1 activity in livers", "setting": "[2]; vs IgG control", "result": "less"}, {"measurement": "expression of key senescence markers (p16 and p21) in livers", "setting": "[2]; vs IgG control", "result": "less"}, {"measurement": "markers of inflammation (CCL2, CCL5, TNFa, IL-1 b, IL-11 and IL-6) in kidney", "setting": "[3]", "result": "reduces"}, {"measurement": "markers of inflammation (CCL2, CCL5, TNFa, IL-1 b, IL-11 and IL-6) in liver", "setting": "[3]", "result": "reduces"}, {"measurement": "markers of inflammation (CCL2, CCL5, TNFa, IL-1 b, IL-11 and IL-6) in skeletal muscle", "setting": "[3]", "result": "reduces"}, {"measurement": "multi-morbidity (serum levels of fats, glucose, tissue fibrosis, kidney function, tissue inflammation, obesity, frailty)", "setting": "[4]", "result": "improves"}]}]}
